Target: T1, canine IL-4 receptor alpha on DH82 cells (canine)
T1 construct: Endogenous receptor of the canine DH82 cell line in the STAT-6 assay; also called canine IL-4Rα; IL-4R alpha
T1 chain: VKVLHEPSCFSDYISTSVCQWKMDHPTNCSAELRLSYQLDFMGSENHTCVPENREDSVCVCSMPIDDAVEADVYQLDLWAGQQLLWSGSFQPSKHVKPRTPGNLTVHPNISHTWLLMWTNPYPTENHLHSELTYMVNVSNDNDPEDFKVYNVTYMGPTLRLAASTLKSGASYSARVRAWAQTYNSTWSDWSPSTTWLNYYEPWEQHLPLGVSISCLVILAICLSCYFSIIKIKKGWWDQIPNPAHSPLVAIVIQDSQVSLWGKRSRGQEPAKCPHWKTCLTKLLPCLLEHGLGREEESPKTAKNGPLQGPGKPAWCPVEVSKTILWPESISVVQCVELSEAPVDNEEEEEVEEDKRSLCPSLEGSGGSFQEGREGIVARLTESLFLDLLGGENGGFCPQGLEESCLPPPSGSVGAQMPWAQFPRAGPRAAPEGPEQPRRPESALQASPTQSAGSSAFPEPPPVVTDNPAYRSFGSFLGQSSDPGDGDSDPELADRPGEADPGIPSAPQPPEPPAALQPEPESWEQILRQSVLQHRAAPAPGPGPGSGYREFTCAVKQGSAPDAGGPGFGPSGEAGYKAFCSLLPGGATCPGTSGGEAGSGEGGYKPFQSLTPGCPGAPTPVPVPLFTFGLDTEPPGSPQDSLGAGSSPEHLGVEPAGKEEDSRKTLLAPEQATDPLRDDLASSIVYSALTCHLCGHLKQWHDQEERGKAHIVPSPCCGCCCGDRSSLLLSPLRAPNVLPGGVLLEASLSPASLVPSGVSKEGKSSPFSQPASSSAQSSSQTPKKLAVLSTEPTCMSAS
Assay: inferred by the filing from inhibition of STAT-6 phosphorylation in DH82 cells
Protocol: Methods [0121] 1. Two tissue culture plates were seeded with 8×10⁴ DH82 cells per well (200 μL with the density of 4×10⁵ cells/mL) and incubated at 37° C. overnight. [0122] 2. The test antibodies were pre-diluted to 500 μg/mL and then 3-fold serially diluted in DH82 Cell Growth Media. The media was removed from the cell culture plates and 50 μL/well of the serially diluted test sample were transferred to each plate. [0123] 3. Canine IL-4 was diluted to 5 ng/mL in DH82 Cell Growth Media and 50 μL was added to each well of one plate. Canine IL-13 was diluted to 10 ng/mL in DH82 Cell Growth Media and 50 μL was added to each well of the second plate. The plates were incubated for 15 min at 37° C. [0124] 4. The media was removed from the plates and 100 μL per well of freshly prepared 1× lysis buffer from the AlphaLISA p-STAT-6 Assay Kit was added to the plate. The plate was agitated on a plate shaker with 350 rpm for 10 minutes at room temperature. [0125] 5. The Acceptor Mix was prepared from the AlphaLISA p-STAT6 Assay Kit and […] was added to 30 μL of the cell lysate in 96-well 1/2 Area Plates. The plates were sealed, agitated for 2 minutes at 350 rpm, and then incubated for 2 hours at room temperature. [0126] 6. […] The plates were read using the AlphaScreen settings on the Perkin Elmer EnVison.

B1: c146E2VL3-cCLk-s/c146E2VH3-cIgG-Bm (antibody, V domains shown)
VH: EVQLVQSGAEVKKPGASVKVSCKASGYTFARYWMHWMKQAPGAGLDWIGMIHPDSGNINYNERFKTKATLTVDKSTSTAYMELSSLRAGDIAVYYCARQLRNAMDYWGQGTLVTVSS
VL: DIVLTQTPLSLSVSPGETASIYCRASESVDSYGNSFLNWYQQKPGQPPKLLIYRASNLASEIPDRFSGSGSRTEFTLKISRVEADDAGVYYCQQNYENPRTFGQGTKLEIKR
notes: Caninized murine anti-canine IL-4R alpha antibody, canine IgG-Bm heavy chain and canine kappa light chain; also called c146E2-H3L3
B1: binds.
